Molecular target: 15N-labeled WT 2N4R tau (microtubule-associated protein tau, longest adult isoform) (human, UniProt P10636-8 1-441, 15N-labeled)
Experiment: NMR titration

- binding result: binds
B1: DnaJA2 (natural protein)
chain: not shown

From article PMC5942583 (Nature structural & molecular biology, 2018)
